Measurements reported in patent US20190233495A1 (Sanofi, published 2019).
Non-standard residues stand in square brackets, D forms with d. Phe(4-F) = N[C@@H](Cc1ccc(F)cc1)C(=O)O; 1Nal = N[C@@H](Cc1cccc2ccccc12)C(=O)O; αMeL = CC(C)C[C@](C)(N)C(=O)O; Nle = CCCC[C@H](N)C(=O)O; Aib = CC(C)(N)C(=O)O

T1: RXFP1 receptor (UniProt Q9HBX9 1-757, limits assumed)
T1 sequence (looked up): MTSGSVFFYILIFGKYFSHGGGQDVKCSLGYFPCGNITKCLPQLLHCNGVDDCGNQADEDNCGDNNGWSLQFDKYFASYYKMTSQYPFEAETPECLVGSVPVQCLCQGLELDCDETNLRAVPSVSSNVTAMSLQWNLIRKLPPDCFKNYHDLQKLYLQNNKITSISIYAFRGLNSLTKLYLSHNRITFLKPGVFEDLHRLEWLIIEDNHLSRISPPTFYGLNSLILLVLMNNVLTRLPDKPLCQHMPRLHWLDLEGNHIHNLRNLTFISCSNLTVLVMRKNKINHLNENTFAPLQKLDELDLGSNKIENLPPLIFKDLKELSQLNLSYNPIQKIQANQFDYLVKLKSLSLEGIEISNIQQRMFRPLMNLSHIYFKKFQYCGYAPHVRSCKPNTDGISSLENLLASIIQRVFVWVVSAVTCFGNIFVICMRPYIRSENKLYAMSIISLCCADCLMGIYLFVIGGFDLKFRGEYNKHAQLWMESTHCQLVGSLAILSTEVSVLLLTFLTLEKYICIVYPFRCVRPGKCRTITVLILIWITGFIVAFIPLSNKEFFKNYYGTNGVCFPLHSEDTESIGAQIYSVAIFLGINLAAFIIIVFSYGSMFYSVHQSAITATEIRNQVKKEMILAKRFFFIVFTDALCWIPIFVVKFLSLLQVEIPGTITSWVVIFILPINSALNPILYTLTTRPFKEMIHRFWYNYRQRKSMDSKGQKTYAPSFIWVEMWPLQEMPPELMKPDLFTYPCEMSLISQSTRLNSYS

B1: SEQ ID NO: 56 (peptide)
peptide: Ac-[αMeL]EGREKVRAK(Ac)I[Aib][Aib]EG[Nle]STWS[Aib]RKK(Ac)-NH2
SMILES: CCCC[C@H](NC(=O)CNC(=O)[C@H](CCC(=O)O)NC(=O)C(C)(C)NC(=O)C(C)(C)NC(=O)[C@@H](NC(=O)[C@H](CCCCNC(C)=O)NC(=O)[C@H](C)NC(=O)[C@H](CCCNC(=N)N)NC(=O)[C@@H](NC(=O)[C@H](CCCCN)NC(=O)[C@H](CCC(=O)O)NC(=O)[C@H](CCCNC(=N)N)NC(=O)CNC(=O)[C@H](CCC(=O)O)NC(=O)[C@](C)(CC(C)C)NC(C)=O)C(C)C)[C@@H](C)CC)C(=O)N[C@@H](CO)C(=O)N[C@H](C(=O)N[C@@H](Cc1c[nH]c2ccccc12)C(=O)N[C@@H](CO)C(=O)NC(C)(C)C(=O)N[C@@H](CCCNC(=N)N)C(=O)N[C@@H](CCCCN)C(=O)N[C@@H](CCCCNC(C)=O)C(N)=O)[C@@H](C)O
B2: SEQ ID NO: 57 (peptide)
peptide: Ac-LEGREKVRAQI[Aib][Aib]EGQSTFS[Aib]RKK-NH2
SMILES: CC[C@H](C)[C@H](NC(=O)[C@H](CCC(N)=O)NC(=O)[C@H](C)NC(=O)[C@H](CCCNC(=N)N)NC(=O)[C@@H](NC(=O)[C@H](CCCCN)NC(=O)[C@H](CCC(=O)O)NC(=O)[C@H](CCCNC(=N)N)NC(=O)CNC(=O)[C@H](CCC(=O)O)NC(=O)[C@H](CC(C)C)NC(C)=O)C(C)C)C(=O)NC(C)(C)C(=O)NC(C)(C)C(=O)N[C@@H](CCC(=O)O)C(=O)NCC(=O)N[C@@H](CCC(N)=O)C(=O)N[C@@H](CO)C(=O)N[C@H](C(=O)N[C@@H](Cc1ccccc1)C(=O)N[C@@H](CO)C(=O)NC(C)(C)C(=O)N[C@@H](CCCNC(=N)N)C(=O)N[C@@H](CCCCN)C(=O)N[C@@H](CCCCN)C(N)=O)[C@@H](C)O
B3: SEQ ID NO: 58 (peptide)
peptide: Ac-LEGREKVRAQI[Aib][Aib]EGQSTYS[Aib]RKK-NH2
SMILES: CC[C@H](C)[C@H](NC(=O)[C@H](CCC(N)=O)NC(=O)[C@H](C)NC(=O)[C@H](CCCNC(=N)N)NC(=O)[C@@H](NC(=O)[C@H](CCCCN)NC(=O)[C@H](CCC(=O)O)NC(=O)[C@H](CCCNC(=N)N)NC(=O)CNC(=O)[C@H](CCC(=O)O)NC(=O)[C@H](CC(C)C)NC(C)=O)C(C)C)C(=O)NC(C)(C)C(=O)NC(C)(C)C(=O)N[C@@H](CCC(=O)O)C(=O)NCC(=O)N[C@@H](CCC(N)=O)C(=O)N[C@@H](CO)C(=O)N[C@H](C(=O)N[C@@H](Cc1ccc(O)cc1)C(=O)N[C@@H](CO)C(=O)NC(C)(C)C(=O)N[C@@H](CCCNC(=N)N)C(=O)N[C@@H](CCCCN)C(=O)N[C@@H](CCCCN)C(N)=O)[C@@H](C)O
B4: SEQ ID NO: 59 (peptide)
peptide: Ac-LEGREKVRAQI[Aib][Aib]EGQST[Phe(4-F)]S[Aib]RKK-NH2
SMILES: CC[C@H](C)[C@H](NC(=O)[C@H](CCC(N)=O)NC(=O)[C@H](C)NC(=O)[C@H](CCCNC(=N)N)NC(=O)[C@@H](NC(=O)[C@H](CCCCN)NC(=O)[C@H](CCC(=O)O)NC(=O)[C@H](CCCNC(=N)N)NC(=O)CNC(=O)[C@H](CCC(=O)O)NC(=O)[C@H](CC(C)C)NC(C)=O)C(C)C)C(=O)NC(C)(C)C(=O)NC(C)(C)C(=O)N[C@@H](CCC(=O)O)C(=O)NCC(=O)N[C@@H](CCC(N)=O)C(=O)N[C@@H](CO)C(=O)N[C@H](C(=O)N[C@@H](Cc1ccc(F)cc1)C(=O)N[C@@H](CO)C(=O)NC(C)(C)C(=O)N[C@@H](CCCNC(=N)N)C(=O)N[C@@H](CCCCN)C(=O)N[C@@H](CCCCN)C(N)=O)[C@@H](C)O
B5: SEQ ID NO: 7 (peptide)
peptide: Ac-LEGREKVR[Aib]QI[Aib]IEGMSKWSKRKK-NH2
SMILES: CC[C@H](C)[C@H](NC(=O)[C@H](CCC(N)=O)NC(=O)C(C)(C)NC(=O)[C@H](CCCNC(=N)N)NC(=O)[C@@H](NC(=O)[C@H](CCCCN)NC(=O)[C@H](CCC(=O)O)NC(=O)[C@H](CCCNC(=N)N)NC(=O)CNC(=O)[C@H](CCC(=O)O)NC(=O)[C@H](CC(C)C)NC(C)=O)C(C)C)C(=O)NC(C)(C)C(=O)N[C@H](C(=O)N[C@@H](CCC(=O)O)C(=O)NCC(=O)N[C@@H](CCSC)C(=O)N[C@@H](CO)C(=O)N[C@@H](CCCCN)C(=O)N[C@@H](Cc1c[nH]c2ccccc12)C(=O)N[C@@H](CO)C(=O)N[C@@H](CCCCN)C(=O)N[C@@H](CCCNC(=N)N)C(=O)N[C@@H](CCCCN)C(=O)N[C@@H](CCCCN)C(N)=O)[C@@H](C)CC
B6: SEQ ID NO: 8 (peptide)
peptide: Ac-LEGREKVRAQI[Aib]IEG[Nle]SKWSKRKK-NH2
SMILES: CCCC[C@H](NC(=O)CNC(=O)[C@H](CCC(=O)O)NC(=O)[C@@H](NC(=O)C(C)(C)NC(=O)[C@@H](NC(=O)[C@H](CCC(N)=O)NC(=O)[C@H](C)NC(=O)[C@H](CCCNC(=N)N)NC(=O)[C@@H](NC(=O)[C@H](CCCCN)NC(=O)[C@H](CCC(=O)O)NC(=O)[C@H](CCCNC(=N)N)NC(=O)CNC(=O)[C@H](CCC(=O)O)NC(=O)[C@H](CC(C)C)NC(C)=O)C(C)C)[C@@H](C)CC)[C@@H](C)CC)C(=O)N[C@@H](CO)C(=O)N[C@@H](CCCCN)C(=O)N[C@@H](Cc1c[nH]c2ccccc12)C(=O)N[C@@H](CO)C(=O)N[C@@H](CCCCN)C(=O)N[C@@H](CCCNC(=N)N)C(=O)N[C@@H](CCCCN)C(=O)N[C@@H](CCCCN)C(N)=O
B7: SEQ ID NO: 9 (peptide)
peptide: Ac-LEGREKVRAQI[Aib]IEGMSK[1Nal]SKRKK-NH2
SMILES: CC[C@H](C)[C@H](NC(=O)[C@H](CCC(N)=O)NC(=O)[C@H](C)NC(=O)[C@H](CCCNC(=N)N)NC(=O)[C@@H](NC(=O)[C@H](CCCCN)NC(=O)[C@H](CCC(=O)O)NC(=O)[C@H](CCCNC(=N)N)NC(=O)CNC(=O)[C@H](CCC(=O)O)NC(=O)[C@H](CC(C)C)NC(C)=O)C(C)C)C(=O)NC(C)(C)C(=O)N[C@H](C(=O)N[C@@H](CCC(=O)O)C(=O)NCC(=O)N[C@@H](CCSC)C(=O)N[C@@H](CO)C(=O)N[C@@H](CCCCN)C(=O)N[C@@H](Cc1cccc2ccccc12)C(=O)N[C@@H](CO)C(=O)N[C@@H](CCCCN)C(=O)N[C@@H](CCCNC(=N)N)C(=O)N[C@@H](CCCCN)C(=O)N[C@@H](CCCCN)C(N)=O)[C@@H](C)CC
B8: SEQ ID NO: 10 (peptide)
peptide: Ac-LEGREKVRAQI[Aib][Aib]EGMSTWSKRKK-NH2
SMILES: CC[C@H](C)[C@H](NC(=O)[C@H](CCC(N)=O)NC(=O)[C@H](C)NC(=O)[C@H](CCCNC(=N)N)NC(=O)[C@@H](NC(=O)[C@H](CCCCN)NC(=O)[C@H](CCC(=O)O)NC(=O)[C@H](CCCNC(=N)N)NC(=O)CNC(=O)[C@H](CCC(=O)O)NC(=O)[C@H](CC(C)C)NC(C)=O)C(C)C)C(=O)NC(C)(C)C(=O)NC(C)(C)C(=O)N[C@@H](CCC(=O)O)C(=O)NCC(=O)N[C@@H](CCSC)C(=O)N[C@@H](CO)C(=O)N[C@H](C(=O)N[C@@H](Cc1c[nH]c2ccccc12)C(=O)N[C@@H](CO)C(=O)N[C@@H](CCCCN)C(=O)N[C@@H](CCCNC(=N)N)C(=O)N[C@@H](CCCCN)C(=O)N[C@@H](CCCCN)C(N)=O)[C@@H](C)O
B9: SEQ ID NO: 11 (peptide)
peptide: Ac-[Aib]EGREKVRAQI[Aib][Aib]EGMSKWSKRKK-NH2
SMILES: CC[C@H](C)[C@H](NC(=O)[C@H](CCC(N)=O)NC(=O)[C@H](C)NC(=O)[C@H](CCCNC(=N)N)NC(=O)[C@@H](NC(=O)[C@H](CCCCN)NC(=O)[C@H](CCC(=O)O)NC(=O)[C@H](CCCNC(=N)N)NC(=O)CNC(=O)[C@H](CCC(=O)O)NC(=O)C(C)(C)NC(C)=O)C(C)C)C(=O)NC(C)(C)C(=O)NC(C)(C)C(=O)N[C@@H](CCC(=O)O)C(=O)NCC(=O)N[C@@H](CCSC)C(=O)N[C@@H](CO)C(=O)N[C@@H](CCCCN)C(=O)N[C@@H](Cc1c[nH]c2ccccc12)C(=O)N[C@@H](CO)C(=O)N[C@@H](CCCCN)C(=O)N[C@@H](CCCNC(=N)N)C(=O)N[C@@H](CCCCN)C(=O)N[C@@H](CCCCN)C(N)=O

These binders were tested against T1, RXFP1 receptor (assay: cell-based or functional assay).

Binder	cAMP assay in OVCAR 5 cells EC50 [nM]	cAMP assay in OVCAR 5 cells Emax [%]
B1	12.3	95
B2	24.4	91
B3	41	93
B4	29.8	86
B5	56.6	101
B6	60	103
B7	37.6	100
B8	22.9	103
B9	44.8	102
